The experiment has as its target Nedd4 on the surface of virus-infected MDCK cells (canine (MDCK cells)). Briefly: cell-based or functional assay.

The substance Human Nedd4 antibody Ab27979 showed an inhibition of viral replication (ADCC mediated, in vitro) of 80 % inhibition. Turning to Human Nedd4 antibody Ab101AP, the inhibition of viral replication (ADCC mediated, in vitro) was 80 % inhibition.

Values taken from patent US8535684.
